{"source": "patent US20020137019A1", "about": "(NEW YORK UNIVERSITY, published 2002)", "molecules": {"B1": {"name": "ART-37 (LexA DNA binding domain fusion) (other)", "chain": "MKALTARQQEVFDLIRDHISQTGMPPTRAEIAQRLGFRSPNAAEEHLKALARKGVIEIVSGASRGIRLLQEEEEGLPLVGRVAAGEPLLAQQHIEGHYQVDPSLFKPNADFLLRVSGMSMKDIGIMDGDLLAVHKTQDVRNGQVVVARIDDEVTVKRLKKQGNKVELLPENSEFKPIVVDLRQQSFTIEGLAVGVIRNGDWLEFGTRARFTRGKSALLERALARPRTEVSLSAFALLSPSWYSTARAVFSVAELQSRLAALGRQVGARVLDALVAREKGARRETKVLGALLFVKGAVWKALFGKEADKLEQANDDARTFYIIEREPLINTYISVPKENSTLNCASFTAGIVEAVLTHSGFPAKVTAHWHKGTTLMIKFEEAVIARDRLEGR", "notes": "Clone from an LNCaP prostate cancer cell cDNA library"}}, "key": {"[1]": {"molecular_target": "B42-AR18-500 (rat androgen receptor N-terminus, residues 18-500, fused to the B42 activation domain) (rat) (UniProt P15207)", "assay": "cell-based or functional assay"}, "[2]": {"molecular_target": "T1, ART-27 (full length, 1-157; LexA DNA binding domain fusion) (human, UniProt P0A7C2 1-202; Q9UBK9 1-157)", "T1 construct": "also called LexA-ART-27; pEG202:ART-27", "assay": "modified yeast two-hybrid, liquid beta-galactosidase assay"}, "[3]": {"molecular_target": "T1, ART-27 (full length, 1-157; LexA DNA …)", "assay": "modified yeast interaction-trap assay, liquid beta-galactosidase"}, "[4]": {"molecular_target": "T2, B42-AR18-500 (rat androgen receptor N-terminus, residues 18-500, fused to the B42 activation domain) (rat, UniProt P15207 18-500)", "T2 construct": "range 18-500; Yeast two-hybrid bait, galactose-inducible; also called AR18-500-AD; pJG4-5:AR18-500", "T2 sequence (looked up)": "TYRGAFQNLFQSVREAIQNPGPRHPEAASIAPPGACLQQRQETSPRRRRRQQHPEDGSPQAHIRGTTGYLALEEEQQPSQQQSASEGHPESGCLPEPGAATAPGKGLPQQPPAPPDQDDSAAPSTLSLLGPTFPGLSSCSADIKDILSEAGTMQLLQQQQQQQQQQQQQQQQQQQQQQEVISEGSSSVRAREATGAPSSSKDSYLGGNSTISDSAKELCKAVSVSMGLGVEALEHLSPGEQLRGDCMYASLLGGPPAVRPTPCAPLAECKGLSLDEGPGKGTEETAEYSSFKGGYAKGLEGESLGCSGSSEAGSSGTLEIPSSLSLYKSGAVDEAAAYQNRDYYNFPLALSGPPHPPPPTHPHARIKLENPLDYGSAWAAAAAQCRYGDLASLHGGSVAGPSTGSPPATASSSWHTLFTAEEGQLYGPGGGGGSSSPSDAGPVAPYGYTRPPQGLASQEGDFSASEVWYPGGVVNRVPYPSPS", "assay": "modified yeast two-hybrid, plate beta-galactosidase assay"}, "[5]": {"molecular_target": "T2, B42-AR18-500 (rat androgen receptor …)", "assay": "modified yeast two-hybrid screen of a LexA-LNCaP cDNA library"}, "[6]": {"molecular_target": "T1, ART-27 (full length, 1-157; LexA DNA …)", "assay": "modified yeast two-hybrid, plate beta-galactosidase assay"}, "[7]": {"molecular_target": "T3, ART-5 (LexA DNA binding domain fusion) (UniProt P0A7C2 1-202, limits assumed)", "T3 construct": "Clone from an LNCaP prostate cancer cell cDNA library", "T3 sequence": "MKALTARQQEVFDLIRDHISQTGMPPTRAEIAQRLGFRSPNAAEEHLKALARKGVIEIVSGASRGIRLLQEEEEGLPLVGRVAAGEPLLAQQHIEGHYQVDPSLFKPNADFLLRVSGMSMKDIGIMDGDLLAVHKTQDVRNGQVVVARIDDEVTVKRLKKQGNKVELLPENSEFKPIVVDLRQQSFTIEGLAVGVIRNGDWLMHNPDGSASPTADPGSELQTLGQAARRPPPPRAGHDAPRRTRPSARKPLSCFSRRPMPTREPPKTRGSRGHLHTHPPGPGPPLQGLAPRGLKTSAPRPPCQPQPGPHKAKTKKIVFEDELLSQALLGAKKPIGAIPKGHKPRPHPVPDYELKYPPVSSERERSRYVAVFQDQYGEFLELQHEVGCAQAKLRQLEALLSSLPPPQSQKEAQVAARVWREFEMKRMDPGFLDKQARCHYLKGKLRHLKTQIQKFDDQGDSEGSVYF", "assay": "modified yeast two-hybrid, plate beta-galactosidase assay"}, "[8]": {"molecular_target": "B1", "assay": "modified yeast two-hybrid, plate beta-galactosidase assay"}}, "data": [{"molecule": "LexA vector alone (from UniProt P0A7C2 1-202)", "values": [{"measurement": "quantitative liquid beta-galactosidase assay (modified yeast two-hybrid) (unit of activity)", "setting": "[1]", "result": 1}]}, {"molecule": "B42-AR18-156 (receptor, rat, UniProt P15207 18-156, looked up, not shown: large carriers) TYRGAFQNLFQSVREAIQNPGPRHPEAASIAPPGACLQQRQETSPRRRRRQQHPEDGSPQAHIRGTTGYLALEEEQQPSQQQSASEGHPESGCLPEPGAATAPGKGLPQQPPAPPDQDDSAAPSTLSLLGPTFPGLSSC", "values": [{"measurement": "binding result", "setting": "[2]", "result": "no binding"}]}, {"molecule": "B42-AR153-336 (receptor, rat, UniProt P15207 153-336, looked up, not shown: large carriers) LSSCSADIKDILSEAGTMQLLQQQQQQQQQQQQQQQQQQQQQQEVISEGSSSVRAREATGAPSSSKDSYLGGNSTISDSAKELCKAVSVSMGLGVEALEHLSPGEQLRGDCMYASLLGGPPAVRPTPCAPLAECKGLSLDEGPGKGTEETAEYSSFKGGYAKGLEGESLGCSGSSEAGSSGTLE", "values": [{"measurement": "binding result", "setting": "[3]", "result": "binds"}]}, {"molecule": "LexA-ART-27 127-157 (other, UniProt P0A7C2 1-202, looked up) MKALTARQQEVFDLIRDHISQTGMPPTRAEIAQRLGFRSPNAAEEHLKALARKGVIEIVSGASRGIRLLQEEEEGLPLVGRVAAGEPLLAQQHIEGHYQVDPSLFKPNADFLLRVSGMSMKDIGIMDGDLLAVHKTQDVRNGQVVVARIDDEVTVKRLKKQGNKVELLPENSEFKPIVVDLRQQSFTIEGLAVGVIRNGDWLDSMNIKAHIHMLLEGLRELQGLQNFPEKPHH", "values": [{"measurement": "binding result", "setting": "[4]", "result": "no binding"}]}, {"molecule": "B1", "values": [{"measurement": "binding result", "setting": "[5]", "result": "binds"}]}, {"molecule": "LexA-ART-27 46-157 (other, UniProt P0A7C2 1-202, looked up) MKALTARQQEVFDLIRDHISQTGMPPTRAEIAQRLGFRSPNAAEEHLKALARKGVIEIVSGASRGIRLLQEEEEGLPLVGRVAAGEPLLAQQHIEGHYQVDPSLFKPNADFLLRVSGMSMKDIGIMDGDLLAVHKTQDVRNGQVVVARIDDEVTVKRLKKQGNKVELLPENSEFKPIVVDLRQQSFTIEGLAVGVIRNGDWLLAKYLQLRNVIERLQEAKHSELYMQVDLGCNFFVDTVVPDTSRIYVALGYGFFLELTLAEALKFIDRKSSLLTELSNSLTKDSMNIKAHIHMLLEGLRELQGLQNFPEKPHH", "values": [{"measurement": "binding result", "setting": "[4]", "result": "no binding"}]}, {"molecule": "rat AR ligand binding domain (AR579-901) in pJG4-5 (receptor, UniProt P15207 579-901, looked up, not shown: large carriers, range 579-901) ASRNDCTIDKFRRKNCPSCRLRKCYEAGMTLGARKLKKLGNLKLQEEGENSSAGSPTEDPSQKMTVSHIEGYECQPIFLNVLEAIEPGVVCAGHDNNQPDSFAALLSSLNELGERQLVHVVKWAKALPGFRNLHVDDQMAVIQYSWMGLMVFAMGWRSFTNVNSRMLYFAPDLVFNEYRMHKSRMYSQCVRMRHLSQEFGWLQITPQEFLCMKALLLFSIIPVDGLKNQKFFDELRMNYIKELDRIIACKRKNPTSCSRRFYQLTKLLDSVQPIARELHQFTFDLLIKSHMVSVDFPEMMAEIISVQVPKILSGKVKPIYFHT", "values": [{"measurement": "binding result", "setting": "[6]", "result": "no binding"}, {"measurement": "binding result", "setting": "[7]", "result": "no binding"}, {"measurement": "binding result", "setting": "[8]", "result": "no binding"}]}, {"molecule": "LexA-ART-27 1-67 (other, UniProt P0A7C2 1-202, looked up, also called ART-27 derivative 1-67) MKALTARQQEVFDLIRDHISQTGMPPTRAEIAQRLGFRSPNAAEEHLKALARKGVIEIVSGASRGIRLLQEEEEGLPLVGRVAAGEPLLAQQHIEGHYQVDPSLFKPNADFLLRVSGMSMKDIGIMDGDLLAVHKTQDVRNGQVVVARIDDEVTVKRLKKQGNKVELLPENSEFKPIVVDLRQQSFTIEGLAVGVIRNGDWLMATPPKRRAVEATGEKVLRYETFISDVLQRDLRKVLDHRDKVYEQLAKYLQLRNVIERLQEAKHSEL", "values": [{"measurement": "binding result", "setting": "[4]", "result": "no binding"}]}, {"molecule": "LexA-ART-27 68-157 (other, UniProt P0A7C2 1-202, looked up) MKALTARQQEVFDLIRDHISQTGMPPTRAEIAQRLGFRSPNAAEEHLKALARKGVIEIVSGASRGIRLLQEEEEGLPLVGRVAAGEPLLAQQHIEGHYQVDPSLFKPNADFLLRVSGMSMKDIGIMDGDLLAVHKTQDVRNGQVVVARIDDEVTVKRLKKQGNKVELLPENSEFKPIVVDLRQQSFTIEGLAVGVIRNGDWLYMQVDLGCNFFVDTVVPDTSRIYVALGYGFFLELTLAEALKFIDRKSSLLTELSNSLTKDSMNIKAHIHMLLEGLRELQGLQNFPEKPHH", "values": [{"measurement": "binding result", "setting": "[4]", "result": "no binding"}]}, {"molecule": "LexA-ART-27 1-45 (other, UniProt P0A7C2 1-202, looked up, also called ART-27 derivative 1-45) MKALTARQQEVFDLIRDHISQTGMPPTRAEIAQRLGFRSPNAAEEHLKALARKGVIEIVSGASRGIRLLQEEEEGLPLVGRVAAGEPLLAQQHIEGHYQVDPSLFKPNADFLLRVSGMSMKDIGIMDGDLLAVHKTQDVRNGQVVVARIDDEVTVKRLKKQGNKVELLPENSEFKPIVVDLRQQSFTIEGLAVGVIRNGDWLMATPPKRRAVEATGEKVLRYETFISDVLQRDLRKVLDHRDKVYEQ", "values": [{"measurement": "binding result", "setting": "[4]", "result": "no binding"}]}, {"molecule": "LexA-ART-27 1-45/127-157 (other, UniProt P0A7C2 1-202, looked up, The two fragments were joined through a BamHI site) MKALTARQQEVFDLIRDHISQTGMPPTRAEIAQRLGFRSPNAAEEHLKALARKGVIEIVSGASRGIRLLQEEEEGLPLVGRVAAGEPLLAQQHIEGHYQVDPSLFKPNADFLLRVSGMSMKDIGIMDGDLLAVHKTQDVRNGQVVVARIDDEVTVKRLKKQGNKVELLPENSEFKPIVVDLRQQSFTIEGLAVGVIRNGDWLMATPPKRRAVEATGEKVLRYETFISDVLQRDLRKVLDHRDKVYEQDSMNIKAHIHMLLEGLRELQGLQNFPEKPHH", "values": [{"measurement": "binding result", "setting": "[4]", "result": "no binding"}]}]}
